According to IntAct's records for PubMed 24003221:

B1: Tyrosine-protein phosphatase non-receptor type 1 (Homo sapiens), P18031 (parent)
chain: MEMEKEFEQIDKSGSWAAIYQDIRHEASDFPCRVAKLPKNKNRNRYRDVSPFDHSRIKLHQEDNDYINASLIKMEEAQRSYILTQGPLPNTCGHFWEMVWEQKSRGVVMLNRVMEKGSLKCAQYWPQKEEKEMIFEDTNLKLTLISEDIKSYYTVRQLELENLTTQETREILHFHYTTWPDFGVPESPASFLNFLFKVRESGSLSPEHGPVVVHCSAGIGRSGTFCLADTCLLLMDKRKDPSSVDIKKVLLEMRKFRMGLIQTADQLRFSYLAVIEGAKFIMGDSSVQDQWKELSHEDLEPPPEHIPPPPRPPKRILEPHNGKCREFFPNHQWVKEETQEDKDCPIKEEKGSPLNAAPYGIESMSQDTEVRSRVVGGSLRGAQAASPAKGEPSLPEKDEDHALSYWKPFLVNMCVATVLTAGAYLCYRFLFNSNT

Variants of: B1
Conditions: with k2c8_human KRT8, P05787
Chain of k2c8_human KRT8, P05787 (P05787 whole entry): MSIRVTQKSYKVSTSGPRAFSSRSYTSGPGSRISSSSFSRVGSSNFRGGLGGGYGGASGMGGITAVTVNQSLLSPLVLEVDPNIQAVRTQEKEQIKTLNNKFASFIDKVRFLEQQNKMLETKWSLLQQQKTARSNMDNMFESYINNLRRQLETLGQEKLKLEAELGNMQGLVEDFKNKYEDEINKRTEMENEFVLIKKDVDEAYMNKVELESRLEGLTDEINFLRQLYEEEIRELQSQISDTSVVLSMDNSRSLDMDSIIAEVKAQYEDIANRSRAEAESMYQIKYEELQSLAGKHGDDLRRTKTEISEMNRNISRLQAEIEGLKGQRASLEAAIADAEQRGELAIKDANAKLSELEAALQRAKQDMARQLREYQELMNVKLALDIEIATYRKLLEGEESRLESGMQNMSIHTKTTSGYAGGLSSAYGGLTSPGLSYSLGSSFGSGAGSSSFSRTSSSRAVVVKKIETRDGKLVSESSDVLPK

Row | Variant | effect of a mutation on the interaction
1 | D181A | increasing interaction strength
